Test results reported in publication PMC5894356 (Structure (London, England : 1993), 2018).

Target: the molecule itself
Test: crystal structure

B1: S. cerevisiae 5-aminolevulinic acid synthase (Hem1), PLP-cleaved ALAS 58-548 (enzyme)
chain: not shown
stoichiometry N: 2
